Data as given in patent US20070042463A1 (BURNHAM INSTITUTE, published 2007).

T1: Siah-1 (22-298) (human, UniProt Q8IUQ4 6-282)
T1 construct: also called Siah-1α amino acids 22-298; LexA/Siah-1 bait
T1 sequence: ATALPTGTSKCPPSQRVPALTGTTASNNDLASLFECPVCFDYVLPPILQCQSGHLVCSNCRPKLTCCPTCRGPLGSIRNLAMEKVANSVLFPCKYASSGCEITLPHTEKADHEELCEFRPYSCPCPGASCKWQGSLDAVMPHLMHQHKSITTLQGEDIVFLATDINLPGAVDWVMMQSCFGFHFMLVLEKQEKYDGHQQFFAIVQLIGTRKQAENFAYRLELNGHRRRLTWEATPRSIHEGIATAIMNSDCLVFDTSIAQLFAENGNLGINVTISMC

T2: SAF-1 (human, UniProt Q9Y3I1 92-522)
T2 construct: also called SAF-1α; Skp1-Associated F-box protein-1
T2 sequence: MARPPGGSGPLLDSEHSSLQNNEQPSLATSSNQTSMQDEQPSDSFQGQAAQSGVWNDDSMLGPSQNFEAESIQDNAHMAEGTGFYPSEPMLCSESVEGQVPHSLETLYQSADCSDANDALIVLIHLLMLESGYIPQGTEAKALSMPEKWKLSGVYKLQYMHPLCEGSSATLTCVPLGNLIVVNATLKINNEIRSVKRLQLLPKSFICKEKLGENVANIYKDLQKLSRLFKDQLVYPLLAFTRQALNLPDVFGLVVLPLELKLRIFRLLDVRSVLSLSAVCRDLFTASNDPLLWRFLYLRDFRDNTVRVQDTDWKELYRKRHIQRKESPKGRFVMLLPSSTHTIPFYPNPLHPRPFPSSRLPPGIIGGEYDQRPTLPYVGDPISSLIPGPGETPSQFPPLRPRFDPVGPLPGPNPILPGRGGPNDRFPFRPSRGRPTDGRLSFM

B1: SIP-S (other)
chain: MASEELQKDLEEVKVLLEKATRKRVRDALTAEKSKIETEIKNKMQQKSQKKAELLDNEKPAAVVAPITTGYTDGISQISL
notes: B42 fusion in yeast two-hybrid
B2: empty (LexA DNA-binding domain without insert) (other, UniProt P0A7C2 1-202, looked up)
chain: MKALTARQQEVFDLIRDHISQTGMPPTRAEIAQRLGFRSPNAAEEHLKALARKGVIEIVSGASRGIRLLQEEEEGLPLVGRVAAGEPLLAQQHIEGHYQVDPSLFKPNADFLLRVSGMSMKDIGIMDGDLLAVHKTQDVRNGQVVVARIDDEVTVKRLKKQGNKVELLPENSEFKPIVVDLRQQSFTIEGLAVGVIRNGDWL
B3: ODC-RANK peptide (protein, part only; not given: Order of parts uncertain, part only)
chain, part: MEQKLISEEDLMNNFGNEEFDCHFLDEGFTAKDILDQKINEVSSSDDKDAFYVADLGDILKKHLRWLKALPRVTPFYAVKCNDSKAIVKTLAATGTGFDCASKTEIQLVQSLGVPPERIIYANPCKQVSQIKYAANNGVQMMTFDSEVELMKVARAHPKAKLVLRIATDDSKAVCRLSVKFGATLRTSRLLLERAKELNIDVVGVSFHVGSGCTDPETFVQAISDARCVFDMGAEVGFSMYLLDIGGGFPGSEDVKLKFEEITGVINPALDKYFPSDSGVRIIAEPGRYYVASAFTLAVNIIAKKIVLKEQTGSDDEDESSEQTFMYYVNDGVYGSFNCILYDHAHVKPLLQKRPKPDEKYYSSSIWGPTCDGLDRIVERCDLPEMHVGDWMLFENMGAYTVAAASTFNGFQRPTIYYVMSGPAWQLMQQFQNPDFPPEVEEQDASTLPVSCAWESGMKRHRAACASASINVAGGGSGGGGSGGGGSGGGGS
B4: Siah-1 (other)
chain: MVIIIFLLPPYVFISEMSRQTATALPTGTSKCPPSQRVPALTGTTASNNDLASLFECPVCFDYVLPPILQCQSGHLVCSNCRPKLTCCPTCRGPLGSIRNLAMEKVANSVLFPCKYASSGCEITLPHTEKADHEELCEFRPYSCPCPGASCKWQGSLDAVMPHLMHQHKSITTLQGEDIVFLATDINLPGAVDWVMMQSCFGFHFMLVLEKQEKYDGHQQFFAIVQLIGTRKQAENFAYRLELNGHRRRLTWEATPRSIHEGIATAIMNSDCLVFDTSIAQLFAENGNLGINVTISMC
notes: also called Siah-1α; Siah 1α
B5: APC (2681-2843) (other, human, UniProt P25054 2681-2843, looked up)
chain: PVIDSVSEKANPNIKDSKDNQAKQNVGNGSVPMRTVGLENRLNSFIQVDAPDQKGTEIKPGQNNPVPVSETNESSIVERTPFSSSSSSKHSSPSGTVAARVTPFNYNPSPRKSSADSTSARPSQIPTPVNNNTKKRDSKTDSTESSGTQSPKRHSGSYLVTSV
notes: LexA or B42 fusion in yeast two-hybrid
B6: SIP-L (other)
chain: MASEELQKDLEEVKVLLEKATRKRVRDALTAEKSKIETEIKNKMQQKSQKKAELLDNEKPAAVVAPITTGYTVKISNYGWDQSDKFVKIYITLTGVHQVPTENVQVHFTERSFDLLVKNLNGKSYSMIVNNLLKPISVEGSSKKVKTDTVLILCRKKVENTRWDYLTQVEKECKEKEKPSYDTETDPSEGLMNVLKKIYEDGDDDMKRTINKAWVESREKQAKGDTEF

Tests used:
SIP-L [1] = target: B6; experiment: yeast two-hybrid; LexA-SIP-L with B42-SIP-S; Leu+ growth - and β-Gal -
Siah-1 (22-298) = target: T1, Siah-1 (22-298); experiment: yeast two-hybrid library screen; LexA-Siah-1 (22-298) bait, human embryonic brain cDNA clones
Protocol: Transformations were performed by a LiCi method using 0.25 mg of pJG4-5-cDNA library DNA, and 5 mg of denatured salmon sperm carrier DNA. Clones that formed on Leu deficient BMM plates containing 2% galactose/1% raffinose were transferred to BMM plates containing leucine and 2% glucose, and filter assays were performed for β-galactosidase measurements as previously described.

SIP-L [2] = target: B6; experiment: yeast two-hybrid; empty LexA with B42-SIP-L; Leu+ growth - and β-Gal -
HA-TRAF6 = experiment: cell-based or functional assay
SAF-1 = target: T2, SAF-1; experiment: yeast two-hybrid (FIG. 6A)
Protocol: Transformed cells were grown on semi-solid media lacking leucine or containing leucine as a control.

[3] = target: B2; experiment: yeast two-hybrid; empty LexA with B42-APC(2681-2843); Leu+ growth - and β-Gal -
[4] = target: the molecule itself; experiment: yeast two-hybrid; LexA-SIP-L with B42-SIP-L; growth on leucine-deficient media (Leu+)

Binder: B1
- binding result (SIP-L [1]): no binding
- binding result (Siah-1 (22-298)): binds

Binder: B2
- binding result (SIP-L [2]): no binding

Binder: B3
- half-life of HA-TRAF6 (35S pulse-chase), ODC-RANKp with AZ (HA-TRAF6): < 1 h
- half-life of HA-TRAF6 (35S pulse-chase), ODC-RANKp without AZ (HA-TRAF6): 2 h

Binder: B4
- binding result (SAF-1): no binding

Binder: B5
- binding result (Siah-1 (22-298)): binds
- binding result [3]: no binding

Binder: B6
- binding result (Siah-1 (22-298)): binds
- binding result [4]: binds
